# Assay results taken from the supplement of paper PMC9112550, “Optimization of the antimicrobial peptide Bac7 by deep mutational scanning” (BMC Biology, 2022).
# System: Escherichia coli TOP10
# Assay: shrunken log2 fold change of peptide-encoding DNA abundance (4.5 h post-induction vs induction); higher = less antimicrobial activity (less host growth inhibition)
# Conditions: time post-induction: 4.5 h; library: site-saturation at positions 5, 18, 19, 20
# 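Note: peptides expressed intracellularly from a pBAD plasmid library in pooled LB shake-flask culture, induced with 0.3% L-arabinose, DNA abundance read by NGS, three biological replicates, DESeq2 with apeglm shrinkage.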
row,Sequence,shrunken log2 fold change
1,RRIRGRPPRLPRPRPRPLNFPRP,-0.0482
2,RRIRYRPPRLPRPRPRPAWHPRP,-0.249
3,RRIRRRPPRLPRPRPRPQKVPRP,0.234
4,RRIRNRPPRLPRPRPRPIQNPRP,-0.139
5,RRIRCRPPRLPRPRPRPWNNPRP,-0.107
6,RRIRHRPPRLPRPRPRPIMNPRP,-1.05
7,RRIRERPPRLPRPRPRPCIQPRP,-1.15
8,RRIRFRPPRLPRPRPRPIQSPRP,-0.127
9,RRIRIRPPRLPRPRPRPWFCPRP,-0.322
10,RRIRQRPPRLPRPRPRPEMEPRP,0.0171
11,RRIRMRPPRLPRPRPRPSKGPRP,-0.071
12,RRIRLRPPRLPRPRPRPPGAPRP,0.54
13,RRIRRRPPRLPRPRPRPCFTPRP,-0.156
14,RRIRWRPPRLPRPRPRPGSNPRP,0.227
15,RRIRWRPPRLPRPRPRPHFKPRP,-0.179
16,RRIRVRPPRLPRPRPRPMDGPRP,0.145
17,RRIRMRPPRLPRPRPRPPPKPRP,2.03
18,RRIRARPPRLPRPRPRPFCDPRP,0.0183
19,RRIRSRPPRLPRPRPRPREKPRP,0.0145
20,RRIRARPPRLPRPRPRPNEMPRP,-0.0653
21,RRIRDRPPRLPRPRPRPVNIPRP,0.0452
22,RRIRRRPPRLPRPRPRPQHWPRP,0.179
23,RRIRSRPPRLPRPRPRPYWTPRP,-0.141
24,RRIRHRPPRLPRPRPRPGLKPRP,0.182
25,RRIRRRPPRLPRPRPRPEYDPRP,0.109

row,Sequence,shrunken log2 fold change
1,RRIRERPPRLPRPRPRPARQPRP,0.0428
2,RRIRTRPPRLPRPRPRPNSVPRP,-0.0853
3,RRIRHRPPRLPRPRPRPKDPPRP,0.0476
4,RRIRRRPPRLPRPRPRPGTRPRP,0.117
5,RRIRGRPPRLPRPRPRPDHTPRP,0.0269
6,RRIRTRPPRLPRPRPRPHYTPRP,-1.01
7,RRIRHRPPRLPRPRPRPIIYPRP,-0.295
8,RRIRHRPPRLPRPRPRPELFPRP,0.458
9,RRIRGRPPRLPRPRPRPPIFPRP,0.35
10,RRIRDRPPRLPRPRPRPFMGPRP,-0.27
11,RRIRQRPPRLPRPRPRPCPIPRP,0.0347
12,RRIRFRPPRLPRPRPRPLIMPRP,-0.352
13,RRIRHRPPRLPRPRPRPKSAPRP,-0.0502
14,RRIRKRPPRLPRPRPRPAAEPRP,1.12
15,RRIRWRPPRLPRPRPRPSPFPRP,-0.245
16,RRIRIRPPRLPRPRPRPSNRPRP,-0.139
17,RRIRKRPPRLPRPRPRPMSKPRP,0.388
18,RRIRARPPRLPRPRPRPYSSPRP,-0.28
19,RRIRWRPPRLPRPRPRPCGQPRP,0.137
20,RRIRHRPPRLPRPRPRPRTYPRP,-0.749
21,RRIRYRPPRLPRPRPRPSSAPRP,-0.197
22,RRIRNRPPRLPRPRPRPAYWPRP,0.0638
23,RRIRLRPPRLPRPRPRPDNWPRP,-0.0493
24,RRIRWRPPRLPRPRPRPYLQPRP,-0.113
25,RRIRIRPPRLPRPRPRPKQTPRP,-0.0291

row,Sequence,shrunken log2 fold change
1,RRIRWRPPRLPRPRPRPNANPRP,0.109
2,RRIRARPPRLPRPRPRPPYCPRP,0.276
3,RRIRTRPPRLPRPRPRPEWPPRP,0.351
4,RRIRGRPPRLPRPRPRPSSFPRP,0.406
5,RRIRSRPPRLPRPRPRPPEEPRP,-0.0451
6,RRIRWRPPRLPRPRPRPWYDPRP,-0.31
7,RRIRARPPRLPRPRPRPTCKPRP,0.0463
8,RRIRRRPPRLPRPRPRPKSVPRP,0.0439
9,RRIRVRPPRLPRPRPRPARRPRP,0.382
10,RRIRDRPPRLPRPRPRPYYNPRP,-1.01
11,RRIRWRPPRLPRPRPRPSHGPRP,-0.583
12,RRIRFRPPRLPRPRPRPLWSPRP,0.655
13,RRIRERPPRLPRPRPRPFDRPRP,-0.0163
14,RRIRRRPPRLPRPRPRPEESPRP,1.5
15,RRIRPRPPRLPRPRPRPGVVPRP,0.215
16,RRIRGRPPRLPRPRPRPFIFPRP,0.516
17,RRIRRRPPRLPRPRPRPLGGPRP,0.376
18,RRIRCRPPRLPRPRPRPNKNPRP,-0.344
19,RRIRMRPPRLPRPRPRPWAQPRP,0.35
20,RRIRERPPRLPRPRPRPNYVPRP,-0.931
21,RRIRKRPPRLPRPRPRPNGFPRP,0.49
22,RRIRARPPRLPRPRPRPYRIPRP,0.11
23,RRIRYRPPRLPRPRPRPGESPRP,0.224
24,RRIRFRPPRLPRPRPRPIFSPRP,-0.341
25,RRIRKRPPRLPRPRPRPRVIPRP,0.0832

row,Sequence,shrunken log2 fold change
1,RRIRIRPPRLPRPRPRPRSDPRP,-0.284
2,RRIRGRPPRLPRPRPRPHEIPRP,0.0317
3,RRIRKRPPRLPRPRPRPCVDPRP,0.268
4,RRIRPRPPRLPRPRPRPFELPRP,-0.284
5,RRIRDRPPRLPRPRPRPPPVPRP,0.867
6,RRIRKRPPRLPRPRPRPINPPRP,0.0583
7,RRIRLRPPRLPRPRPRPISAPRP,-0.053
8,RRIRYRPPRLPRPRPRPDAFPRP,-1.27
9,RRIRSRPPRLPRPRPRPVTSPRP,-0.132
10,RRIRDRPPRLPRPRPRPYWSPRP,-0.503
11,RRIRNRPPRLPRPRPRPYQNPRP,0.0156
12,RRIRWRPPRLPRPRPRPKDMPRP,-0.0331
13,RRIRIRPPRLPRPRPRPPCWPRP,0.836
14,RRIRLRPPRLPRPRPRPCFLPRP,-0.337
15,RRIRNRPPRLPRPRPRPFATPRP,-0.101
16,RRIRWRPPRLPRPRPRPWFLPRP,-0.617
17,RRIRMRPPRLPRPRPRPMGEPRP,0.792
18,RRIRSRPPRLPRPRPRPSHLPRP,-0.265
19,RRIRHRPPRLPRPRPRPTCGPRP,0.0685
20,RRIRMRPPRLPRPRPRPCTIPRP,-0.263
21,RRIRMRPPRLPRPRPRPWENPRP,-0.0294
22,RRIRERPPRLPRPRPRPYCTPRP,-1.13
23,RRIRCRPPRLPRPRPRPGGTPRP,-0.0298
24,RRIRRRPPRLPRPRPRPHYSPRP,-0.538
25,RRIRVRPPRLPRPRPRPQSKPRP,-0.172

row,Sequence,shrunken log2 fold change
1,RRIRGRPPRLPRPRPRPMEHPRP,0.171
2,RRIRFRPPRLPRPRPRPNIQPRP,-0.973
3,RRIRMRPPRLPRPRPRPYEVPRP,-0.00992
4,RRIRDRPPRLPRPRPRPRHHPRP,-0.043
5,RRIRIRPPRLPRPRPRPIKEPRP,-0.021
6,RRIRPRPPRLPRPRPRPTVNPRP,-0.157
7,RRIRNRPPRLPRPRPRPEYIPRP,-0.0947
8,RRIRTRPPRLPRPRPRPEQTPRP,0.303
9,RRIRHRPPRLPRPRPRPVFIPRP,-0.493
10,RRIRFRPPRLPRPRPRPTSHPRP,-0.193
11,RRIRMRPPRLPRPRPRPQNDPRP,-0.179
12,RRIRIRPPRLPRPRPRPPWVPRP,0.0988
13,RRIRPRPPRLPRPRPRPKGKPRP,-0.135
14,RRIRSRPPRLPRPRPRPNIVPRP,0.238
15,RRIRCRPPRLPRPRPRPYMLPRP,-1.06
16,RRIRTRPPRLPRPRPRPARNPRP,0.199
17,RRIRDRPPRLPRPRPRPMLQPRP,0.0454
18,RRIRDRPPRLPRPRPRPSTAPRP,0.314
19,RRIRVRPPRLPRPRPRPQHQPRP,-0.571
20,RRIRYRPPRLPRPRPRPTHMPRP,-0.429
21,RRIRERPPRLPRPRPRPTKKPRP,0.0853
22,RRIRGRPPRLPRPRPRPWAAPRP,0.539
23,RRIRVRPPRLPRPRPRPGGMPRP,0.0665
24,RRIRDRPPRLPRPRPRPYWMPRP,-0.541
25,RRIRCRPPRLPRPRPRPDQRPRP,-0.254

row,Sequence,shrunken log2 fold change
1,RRIRVRPPRLPRPRPRPHPYPRP,-1.08
2,RRIRDRPPRLPRPRPRPLSRPRP,-0.113
3,RRIRFRPPRLPRPRPRPTLNPRP,-0.254
4,RRIRPRPPRLPRPRPRPCYQPRP,-0.565
5,RRIRIRPPRLPRPRPRPIPWPRP,-0.533
6,RRIRIRPPRLPRPRPRPIHTPRP,-0.907
7,RRIRTRPPRLPRPRPRPTWCPRP,-0.178
8,RRIRLRPPRLPRPRPRPECRPRP,2.41
9,RRIRLRPPRLPRPRPRPYHAPRP,-0.186
10,RRIRGRPPRLPRPRPRPPVVPRP,1.7
11,RRIRHRPPRLPRPRPRPNYPPRP,-0.32
12,RRIRQRPPRLPRPRPRPLSNPRP,-0.109
13,RRIRPRPPRLPRPRPRPLVRPRP,0.138
14,RRIRFRPPRLPRPRPRPIPEPRP,0.236
15,RRIRQRPPRLPRPRPRPKNIPRP,-0.652
16,RRIRNRPPRLPRPRPRPREGPRP,0.187
17,RRIRRRPPRLPRPRPRPKSGPRP,-0.0499
18,RRIRFRPPRLPRPRPRPFVQPRP,-0.694
19,RRIRWRPPRLPRPRPRPCYAPRP,-0.345
20,RRIRKRPPRLPRPRPRPKEYPRP,0.191
21,RRIRTRPPRLPRPRPRPRTQPRP,0.172
22,RRIRVRPPRLPRPRPRPCGIPRP,0.0878
23,RRIRPRPPRLPRPRPRPRWPPRP,0.616
24,RRIRTRPPRLPRPRPRPDKMPRP,-0.392
25,RRIRNRPPRLPRPRPRPVCWPRP,0.469
